For 1 substance, stoichiometry N (copies per triplex) results are on record in article PMC3744435.

For the experiment, the target named is capsid triplex (heterotrimer of two mCP and one mC-BP) (human cytomegalovirus (HCMV) strain AD169) (UniProt P16728). The experiment is described as follows: cryo-EM structure.

With “tegument protein pp150 (from UniProt P08318 1-1048) (natural protein)”, the stoichiometry N (copies per triplex) is 3.
